Results: paper PMC5522039, “Non-invasive assessment of murine PD-L1 levels in syngeneic tumor models by nuclear imaging with nanobody tracers” (Oncotarget, 2017)

Experiments:
[1] = molecular target: T1, His-tagged recombinant mouse PD-L1 protein (Mus musculus, UniProt Q9EP73)
[2] = molecular target: T2, His-tagged recombinant human PD-L1 protein (Sino Biological #10084-H08H) (Homo sapiens, UniProt Q9NZQ7); assay: SPR; Biacore T200, 25°C, HBS (0.01 M HEPES pH 7.4, 0.15 M NaCl, 3 mM EDTA, 0.005% Tween 20); His-tagged recombinant human PD-L1 amine-coupled on a CM5 chip (650-900 RU); purified Nb as analyte, 9 dilutions (0.15-1000 nM), 120 s association, 160 s dissociation; 1-to-1 fit; n = 1; details: both partners purified
T2 construct: programmed death-ligand 1 (PD-L1, B7-H1, CD274), human; also called huPD-L1; source: bought: Sino Biological (#10084-H08H)

[3] = molecular target: T1, His-tagged recombinant mouse PD-L1 …; assay: SPR; His-tagged mouse or human PD-L1 immobilised on a CM5 chip (EDC/NHS, between 650 and 900 RU); purified Nbs, 9 dilutions, 120 sec binding, 160 sec dissociation; Biacore T200, 25°C, HBS (0.01 M HEPES pH 7.4, 0.15 M NaCl, 3 mM EDTA, 0.005% Tween 20); 1-to-1 fit; n = 1; details: both partners purified
[4] = molecular target: T3, Mouse PD-L1 Fc-fusion protein (R&D Systems, 1019-B7) (Mus musculus, UniProt Q9EP73); assay: SPR; Biacore T200, 25°C, HBS (0.01 M HEPES pH 7.4, 0.15 M NaCl, 3 mM EDTA, 0.005% Tween 20); mouse or human PD-L1 Fc-fusion protein amine-coupled on a CM5 chip (650-900 RU); Nb in crude periplasmic extract as analyte, its concentration estimated by CFCA; 9 dilutions, 120 s association, 160 s dissociation; 1-to-1 fit; affinity estimations; details: one partner purified
T3 construct: programmed death-ligand 1 (PD-L1, B7-H1, CD274), mouse; also called moPD-L1; B7-H1; source: bought: R&D Systems (1019-B7)

[5] = molecular target: T4, Human PD-L1 Fc-fusion protein (R&D Systems, 156-B7) (Homo sapiens, UniProt Q9NZQ7); assay: as above; details: one partner purified
T4 construct: programmed death-ligand 1 (PD-L1, B7-H1, CD274), human; also called huPD-L1; B7-H1; source: bought: R&D Systems (156-B7)
T4 sequence (Q9NZQ7 19-238): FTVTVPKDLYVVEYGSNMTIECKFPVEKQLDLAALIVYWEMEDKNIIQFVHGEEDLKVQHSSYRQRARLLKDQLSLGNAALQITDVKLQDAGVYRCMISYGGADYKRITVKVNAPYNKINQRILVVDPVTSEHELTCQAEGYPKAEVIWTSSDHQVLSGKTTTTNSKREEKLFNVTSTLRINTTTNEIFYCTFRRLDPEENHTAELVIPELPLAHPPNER

T2 sequence (Q9NZQ7 19-238): as above
T1 sequence (Q9EP73 19-239): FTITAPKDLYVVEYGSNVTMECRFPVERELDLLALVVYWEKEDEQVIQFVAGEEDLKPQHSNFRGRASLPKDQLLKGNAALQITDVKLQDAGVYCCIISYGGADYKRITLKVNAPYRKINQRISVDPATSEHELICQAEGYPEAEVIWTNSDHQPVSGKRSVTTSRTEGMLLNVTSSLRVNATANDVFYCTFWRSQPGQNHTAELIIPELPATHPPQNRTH
T3 sequence (Q9EP73 19-239): as above

Binder | Kd [2] [µM] | Kd [3] [µM] | also measured
H1 (VHH) VHH: QVQLQESGGGLVQAGGSLRLSCAASGRTFSSRGMGWFRQAPGKEREFVAAISWGGGTTYYADSVKGRFTISRDNAKNTVYLQMNSLKPEDTAVYYCAAHTGFPHEYDYWGQGTQVTVSS | – | – | binding result [1]: binds
Nb C3 (purified, C-terminal His6 tag) (VHH, source: E. coli (pHEN6), purified; not shown: His6, C-terminal, kept) VHH: QVQLQESGGGLVQTGGSLRLSCAASGSTVSSSMMAWWRQTPGNQRELVALVASGNNTNYVDSVKGRFTVSRDNAKNTMYLQMNSLKPEDTAVYYCRILSVNGIWYWGQGTQVTVSS | 0.17 | – | –
Nb C3 (VHH, Nanobody from a dromedary immunised with RAW264.7 cells; recloned into pHEN6 for the C-terminal His6 tag; also called anti-PD-L1 Nb C3; source: E. coli fermentation cultures, purified; not shown: His6, C-terminal, kept) VHH: QVQLQESGGGLVQTGGSLRLSCAASGSTVSSSMMAWWRQTPGNQRELVALVASGNNTNYVDSVKGRFTVSRDNAKNTMYLQMNSLKPEDTAVYYCRILSVNGIWYWGQGTQVTVSS | – | 0.0005 | –
Nb E2 (purified, C-terminal His6 tag) (VHH, source: E. coli (pHEN6), purified; not shown: His6, C-terminal, kept) VHH: QVQLQESGGGLVQAGGSLRLSCATSGSIFSIISMGWYRQAPGKQRELVALVFRGGSTVYADSVKGRFTISGDIAKNTVYLQMDSLKPEDTAVYYCNVKSIGTAQYWGQGTQITVSS | 0.0551 | – | –
Nb E2 (VHH, Nanobody from a dromedary immunised with RAW264.7 cells; recloned into pHEN6 for the C-terminal His6 tag; also called anti-PD-L1 Nb E2; source: E. coli fermentation cultures, purified; not shown: His6, C-terminal, kept) VHH: QVQLQESGGGLVQAGGSLRLSCATSGSIFSIISMGWYRQAPGKQRELVALVFRGGSTVYADSVKGRFTISGDIAKNTVYLQMDSLKPEDTAVYYCNVKSIGTAQYWGQGTQITVSS | – | 0.0021 | –
F1 (VHH) VHH: QVQLQESGGGLVQAGGSLRLSCTASRTTSSINIMAWYRQAPGKRRELVALSIRGGNTHYADSVKGRFTISGVHANNTVYLQMNSLKPEDTAVYYCNTGGYWGQGTQVTVSS | – | – | binding result [1]: binds
Nb C4 (HA-tagged, in periplasmic extract) (VHH, source: E. coli WK6 (pHEN4), crude periplasmic extract) VHH: QVQLQESGGGLVQPGGSLRLSCAASGSTVSSSMMAWWRQTPGNQRELVALVASGNNTNYVDSVKGRFTVSRDNAKNTMYLQMNGLKPEDTAVYYCRLSVNGIWYWGQGTQVTVSS | – | – | Kd [4]: 0.000187 µM; Kd [5]: 0.342 µM
Nb C7 (purified, C-terminal His6 tag) (VHH, source: E. coli (pHEN6), purified; not shown: His6, C-terminal, kept) VHH: QVQLQESGGGSVQAGESLTLSCTASGSSLSHKSVGWWRQTPGNQRELVALVASGNNTNYVDSVKGRFTVSRDNAKNTMYLQMNSLKPEDTAVYYCRILSVNGIWYWGQGTQVTVSS | 0.0745 | – | –
Nb C7 (VHH, Nanobody from a dromedary immunised with RAW264.7 cells; recloned into pHEN6 for the C-terminal His6 tag; also called anti-PD-L1 Nb C7; source: E. coli fermentation cultures, purified; not shown: His6, C-terminal, kept) VHH: QVQLQESGGGSVQAGESLTLSCTASGSSLSHKSVGWWRQTPGNQRELVALVASGNNTNYVDSVKGRFTVSRDNAKNTMYLQMNSLKPEDTAVYYCRILSVNGIWYWGQGTQVTVSS | – | 0.017 | –

More lines, main results first:

Kd [2] [µM] | Kd [3] [µM] | Binder | also measured
– | 0.004 | Nb E4 (VHH, Nanobody from a dromedary immunised with RAW264.7 cells; recloned into pHEN6 for the C-terminal His6 tag; also called anti-PD-L1 Nb E4; source: E. coli fermentation cultures, purified; not shown: His6, C-terminal, kept) VHH: QVQLQESGGGLVHPGGSLRLSCATSGSIFSIISMGWYRQAPGKQRELVALVFRGGSTVYADSVKGRFTISGDIAKSTVYLQMDSLKPEDTAVYYCNAKPIGTAQYWGQGTQVTVSS | –
0.0461 | – | Nb E4 (purified, C-terminal His6 tag) (VHH, source: E. coli (pHEN6), purified; not shown: His6, C-terminal, kept) VHH: QVQLQESGGGLVHPGGSLRLSCATSGSIFSIISMGWYRQAPGKQRELVALVFRGGSTVYADSVKGRFTISGDIAKSTVYLQMDSLKPEDTAVYYCNAKPIGTAQYWGQGTQVTVSS | –
